Here are results for 35 sequences from the supplement of paper PMC7877785.

± gives the uncertainty stated by the source.

A short description of this data set: self-splicing fitness, log relative to wild type (ln ratio); higher = more splicing; Tetrahymena group I intron in knt gene, E. coli kanamycin selection, DiMSum; sequences stand for … in CUCUCU…GGAGGGAAAAGUUAUCAGGCAUGCACCUGGUAGCUAGUCUUUAAACCAAUAGAUUGCAUCGGUUUAAAAGGCAAGACCGUCAAAUUGCGGGAAAGGGGUCAACAGCCGUUCAGUACCAAGUCUCAGGGGAAACUUUGAGAUGGCCUUGCAAAGGGUAUGGUAAUAAGCUGACGGACAUGGUCCUAACCACGCAGCCAAGUCCUAAGUCAACAGAUCUUCUGUUGAUAUGGAUGCAGUUCACAGACUAAAUGUCGGUCGGGGAAGAUGUAUUCUUCUCAUAAGAUAUAGUCGGACCUCUCCUUAAUGGGAGCUAGCGGAUGAAGUGAUGCAACACUGGAGCCGCUGGGAACUAAUUUGUAUGCGAAAGUAUAUUGAUUAGUUUUGGAGUACUCGUGGUCG
The method in brief:
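The eight P1ex-region nucleotides of an intron in the knt kanamycin-resistance gene on pET-22b(+) were all randomised and the library put into E. coli BL21(DE3). Six replicate transformations were grown overnight at 37°C or 30°C on LB agar with or without 25 μg/mL kanamycin, together with 100 μg/mL carbenicillin, 50 μM IPTG and 0.2% rhamnose. Colonies were pooled and amplicon-sequenced on an Illumina HiSeq 2500. Fitness from DiMSum is the error-weighted combination of wild-type-normalised replicate fold changes, kanamycin over none.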

UGCUAGCAAUAUUACGGAAC: where the note is “30 °C”, the “self-splicing fitness (ln)” value was -1.04 ± 0.5.
Consider AGCUAGCAAUAUUACGCGAG, for which the “self-splicing fitness (ln)” value was -2.38 ± 0.22 (30 °C) and -3.12 ± 0.32 (37 °C).
In the same order, the values of CAUUAGCAAUAUUACGGUUA are -2.35 ± 0.28 and -0.486 ± 0.17.
For the sequence CAGGAGCAAUAUUACGCUAC, the “self-splicing fitness (ln)” value (30 °C) was -1.78 ± 0.4.
UGCCAGCAAUAUUACGAGAC: the “self-splicing fitness (ln)” value is -3.05 ± 0.2 (30 °C) and -2.05 ± 0.26 (37 °C).
The matching figures for GACUAGCAAUAUUACGGCUU: -0.318 ± 0.099 and 0.0615 ± 0.14.
On to UACGAGCAAUAUUACGGGCC, for which, under “37 °C”, the “self-splicing fitness (ln)” value is -3.34 ± 0.28.
In the case of AUUCAGCAAUAUUACGUACA, the “self-splicing fitness (ln)” value (30 °C) is -0.718 ± 0.095 and the “self-splicing fitness (ln)” value (37 °C) amounted to 0.309 ± 0.11.
The matching figures for AAGAAGCAAUAUUACGCUGC: -2.58 ± 0.32 and -1.75 ± 0.35.
The matching figures for GUCCAGCAAUAUUACGGUCU: -2.7 ± 0.12 and -1.2 ± 0.12.
The matching figures for CAACAGCAAUAUUACGUUGA: -3.22 ± 0.12 and -3.19 ± 0.15.
On to UGCCAGCAAUAUUACGAGCC, for which the “self-splicing fitness (ln)” value was -0.839 ± 0.087 (30 °C) and 0.369 ± 0.15 (37 °C).
In the case of UUGCAGCAAUAUUACGGUUG, the “self-splicing fitness (ln)” value reads like this: (30 °C) -3.07 ± 0.15; (37 °C) -2.04 ± 0.15.
In the same order, the values of GUACAGCAAUAUUACGGACG are -3.05 ± 0.14 and -0.547 ± 0.12.
For the sequence GUAGAGCAAUAUUACGCUUC, the “self-splicing fitness (ln)” value runs as follows: (30 °C) -3.16 ± 0.45; (37 °C) -1.63 ± 0.27.
In the same order, the values of CCAUAGCAAUAUUACGUAAA are -4.17 ± 0.2 and -3.03 ± 0.32.
Regarding GCGUAGCAAUAUUACGCCGA, under “37 °C”, the “self-splicing fitness (ln)” value was -2.28 ± 0.47.
AUACAGCAAUAUUACGGCGA: the “self-splicing fitness (ln)” value by setting is: (30 °C) -1.08 ± 0.096; (37 °C) -0.781 ± 0.11.
The matching figures for AUAAAGCAAUAUUACGAUUA: -0.144 ± 0.073 and 0.683 ± 0.095.
The matching figures for CGGUAGCAAUAUUACGACUC: -1.01 ± 0.32 and 1.23 ± 0.43.
The matching figures for GUCUAGCAAUAUUACGUUGU: -0.779 ± 0.055 and -0.582 ± 0.065.
For the sequence AAUGAGCAAUAUUACGAAGU, the “self-splicing fitness (ln)” value (37 °C) was -2.16 ± 0.33.
For CACUAGCAAUAUUACGAACU, the “self-splicing fitness (ln)” value (30 °C) is -2.65 ± 0.1 and the “self-splicing fitness (ln)” value (37 °C) was -1.99 ± 0.15.
For the sequence AAGUAGCAAUAUUACGCGUU, the “self-splicing fitness (ln)” value is -2.09 ± 0.18 (30 °C) and -0.705 ± 0.17 (37 °C).
The matching figures for ACAAAGCAAUAUUACGCUGU: -2.48 ± 0.14 and -3.01 ± 0.27.
In the same order, the values of CGGAAGCAAUAUUACGAAAG are -0.838 ± 0.12 and -0.911 ± 0.19.
Turning to AACCAGCAAUAUUACGAACU, the “self-splicing fitness (ln)” value is -0.369 ± 0.079 (30 °C) and 0.35 ± 0.1 (37 °C).
The matching figures for CCAAAGCAAUAUUACGCUGC: -3.03 ± 0.17 and -1.8 ± 0.18.
The matching figures for ACGGAGCAAUAUUACGCUUG: -1.71 ± 0.11 and -0.212 ± 0.1.
In the same order, the values of GGUAAGCAAUAUUACGGGUC are -2.39 ± 0.24 and -1.81 ± 0.31.
As for UCGGAGCAAUAUUACGGAAU, the “self-splicing fitness (ln)” value (37 °C) was -2.38 ± 0.42.
With UUACAGCAAUAUUACGAGCA, the “self-splicing fitness (ln)” value is, setting by setting: (30 °C) -1.65 ± 0.14; (37 °C) -0.698 ± 0.11.
In the same order, the values of UAGAAGCAAUAUUACGCAGG are -2.7 ± 0.15 and -2.19 ± 0.15.
As for GUGUAGCAAUAUUACGGUAG, the “self-splicing fitness (ln)” value (37 °C) was -1.58 ± 0.23.
Regarding GACAAGCAAUAUUACGGGGU, the “self-splicing fitness (ln)” value by setting is: (30 °C) -2.96 ± 0.12; (37 °C) -3.16 ± 0.15.
